Laboratory results published in patent US20260049138A1 (Chugai, published 2026).

Target: T1, CD3ε homodimer protein (human, UniProt P07766 23-126, limits assumed, sulfo-tag or biotin label in the ECL assays; amine-coupled to the chip in SPR)
T1 construct: also called human CD3ε homodimer protein; CD3 (CD3ε)
Assay: SPR Biacore T200; CD3ε homodimer on CM4 chip;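 note: Single-residue variant antibodies injected as analyte over CD3ε homodimer immobilized by amine coupling, run at 25 °C in HBS-EP+ buffer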

T1 sequence (P07766 23-126 limits assumed): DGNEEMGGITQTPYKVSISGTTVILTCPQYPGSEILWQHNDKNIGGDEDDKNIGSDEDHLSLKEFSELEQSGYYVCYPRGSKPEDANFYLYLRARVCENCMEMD

B1: CE115HA000 H35G one-arm antibody (antibody, human IgG1, kappa, L234A L235A, N297A, name in Kabat numbering)
heavy: QVQLVESGGGVVQPGRSLRLSCAASGFTFSNAWMGWVRQAPGKGLEWVAQIKAKSNNYATYYAESVKGRFTISRDDSKNSLYLQMNSLKTEDTAVYYCRYVHYGAYYGVDAWGQGTTVTVSSASTKGPSVFPLAPSSKSTSGGTAALGCLVKDYFPEPVTVSWNSGALTSGVHTFPAVLQSSGLYSLSSVVTVPSSSLGTQTYICNVNHKPSNTKVDKKVEPKSCDKTHTCPPCPAPEAAGGPSVFLFPPKPKDTLMISRTPEVTCVVVDVSHEDPEVKFNWYVDGVEVHNAKTKPREEQYASTYRVVSVLTVLHQDWLNGKEYKCKVSNKALPAPIEKTISKAKGQPREPQVYTLPPSRCELTKNQVSLSCAVKGFYPSDIAVEWESNGQPENNYKTTPPVLDSDGSFFLVSKLTVDKSRWQQGNVFSCSVMHEALHNHYTQKSLSLSPDYKDDDDK
chain: EPKSSDKTHTCPPCPAPELLGGPSVFLFPPKPKDTLMISRTPEVTCVVVDVSHEDPEVKFNWYVDGVEVHNAKTKPREEQYNSTYRVVSVLTVLHQDWLNGKEYKCKVSNKALPAPIEKTISKAKGQPREPQVCTLPPSRDELTKNQVSLWCLVKGFYPSDIAVEWESNGQPENNYKTTPPVLDSDGSFFLYSKLTVDKSRWQQGNVFSCSVMHEALHNRYTQKSLSLSP
light: DIVMTQSPLSLPVTPGEPASISCRSSQSLVHSNRNTYLHWYQQKPGQAPRLLIYKVSNRFSGVPDRFSGSGSGTDFTLKISRVEAEDVGVYYCGQGTQVPYTFGQGTKLEIKRTVAAPSVFIFPPSDEQLKSGTASVVCLLNNFYPREAKVQWKVDNALQSGNSQESVTEQDSKDSTYSLSSTLTLSKADYEKHKVYACEVTHQGLSSPVTKSFNRGEC
ratio of amounts bound Z=Y/X (altered form / CE115HA000): 0.22

B2: CE115HA000 H35I one-arm antibody (antibody, human IgG1, kappa, L234A L235A, N297A, name in Kabat numbering)
heavy: QVQLVESGGGVVQPGRSLRLSCAASGFTFSNAWMIWVRQAPGKGLEWVAQIKAKSNNYATYYAESVKGRFTISRDDSKNSLYLQMNSLKTEDTAVYYCRYVHYGAYYGVDAWGQGTTVTVSSASTKGPSVFPLAPSSKSTSGGTAALGCLVKDYFPEPVTVSWNSGALTSGVHTFPAVLQSSGLYSLSSVVTVPSSSLGTQTYICNVNHKPSNTKVDKKVEPKSCDKTHTCPPCPAPEAAGGPSVFLFPPKPKDTLMISRTPEVTCVVVDVSHEDPEVKFNWYVDGVEVHNAKTKPREEQYASTYRVVSVLTVLHQDWLNGKEYKCKVSNKALPAPIEKTISKAKGQPREPQVYTLPPSRCELTKNQVSLSCAVKGFYPSDIAVEWESNGQPENNYKTTPPVLDSDGSFFLVSKLTVDKSRWQQGNVFSCSVMHEALHNHYTQKSLSLSPDYKDDDDK
chain: EPKSSDKTHTCPPCPAPELLGGPSVFLFPPKPKDTLMISRTPEVTCVVVDVSHEDPEVKFNWYVDGVEVHNAKTKPREEQYNSTYRVVSVLTVLHQDWLNGKEYKCKVSNKALPAPIEKTISKAKGQPREPQVCTLPPSRDELTKNQVSLWCLVKGFYPSDIAVEWESNGQPENNYKTTPPVLDSDGSFFLYSKLTVDKSRWQQGNVFSCSVMHEALHNRYTQKSLSLSP
light: DIVMTQSPLSLPVTPGEPASISCRSSQSLVHSNRNTYLHWYQQKPGQAPRLLIYKVSNRFSGVPDRFSGSGSGTDFTLKISRVEAEDVGVYYCGQGTQVPYTFGQGTKLEIKRTVAAPSVFIFPPSDEQLKSGTASVVCLLNNFYPREAKVQWKVDNALQSGNSQESVTEQDSKDSTYSLSSTLTLSKADYEKHKVYACEVTHQGLSSPVTKSFNRGEC
ratio of amounts bound Z=Y/X (altered form / CE115HA000): 0.12

B3: CE115HA000 H35K one-arm antibody (antibody, human IgG1, kappa, L234A L235A, N297A, name in Kabat numbering)
heavy: QVQLVESGGGVVQPGRSLRLSCAASGFTFSNAWMKWVRQAPGKGLEWVAQIKAKSNNYATYYAESVKGRFTISRDDSKNSLYLQMNSLKTEDTAVYYCRYVHYGAYYGVDAWGQGTTVTVSSASTKGPSVFPLAPSSKSTSGGTAALGCLVKDYFPEPVTVSWNSGALTSGVHTFPAVLQSSGLYSLSSVVTVPSSSLGTQTYICNVNHKPSNTKVDKKVEPKSCDKTHTCPPCPAPEAAGGPSVFLFPPKPKDTLMISRTPEVTCVVVDVSHEDPEVKFNWYVDGVEVHNAKTKPREEQYASTYRVVSVLTVLHQDWLNGKEYKCKVSNKALPAPIEKTISKAKGQPREPQVYTLPPSRCELTKNQVSLSCAVKGFYPSDIAVEWESNGQPENNYKTTPPVLDSDGSFFLVSKLTVDKSRWQQGNVFSCSVMHEALHNHYTQKSLSLSPDYKDDDDK
chain: EPKSSDKTHTCPPCPAPELLGGPSVFLFPPKPKDTLMISRTPEVTCVVVDVSHEDPEVKFNWYVDGVEVHNAKTKPREEQYNSTYRVVSVLTVLHQDWLNGKEYKCKVSNKALPAPIEKTISKAKGQPREPQVCTLPPSRDELTKNQVSLWCLVKGFYPSDIAVEWESNGQPENNYKTTPPVLDSDGSFFLYSKLTVDKSRWQQGNVFSCSVMHEALHNRYTQKSLSLSP
light: DIVMTQSPLSLPVTPGEPASISCRSSQSLVHSNRNTYLHWYQQKPGQAPRLLIYKVSNRFSGVPDRFSGSGSGTDFTLKISRVEAEDVGVYYCGQGTQVPYTFGQGTKLEIKRTVAAPSVFIFPPSDEQLKSGTASVVCLLNNFYPREAKVQWKVDNALQSGNSQESVTEQDSKDSTYSLSSTLTLSKADYEKHKVYACEVTHQGLSSPVTKSFNRGEC
ratio of amounts bound Z=Y/X (altered form / CE115HA000): 0.15

B4: CE115HA000 H35N one-arm antibody (antibody, human IgG1, kappa, L234A L235A, N297A, name in Kabat numbering)
heavy: QVQLVESGGGVVQPGRSLRLSCAASGFTFSNAWMNWVRQAPGKGLEWVAQIKAKSNNYATYYAESVKGRFTISRDDSKNSLYLQMNSLKTEDTAVYYCRYVHYGAYYGVDAWGQGTTVTVSSASTKGPSVFPLAPSSKSTSGGTAALGCLVKDYFPEPVTVSWNSGALTSGVHTFPAVLQSSGLYSLSSVVTVPSSSLGTQTYICNVNHKPSNTKVDKKVEPKSCDKTHTCPPCPAPEAAGGPSVFLFPPKPKDTLMISRTPEVTCVVVDVSHEDPEVKFNWYVDGVEVHNAKTKPREEQYASTYRVVSVLTVLHQDWLNGKEYKCKVSNKALPAPIEKTISKAKGQPREPQVYTLPPSRCELTKNQVSLSCAVKGFYPSDIAVEWESNGQPENNYKTTPPVLDSDGSFFLVSKLTVDKSRWQQGNVFSCSVMHEALHNHYTQKSLSLSPDYKDDDDK
chain: EPKSSDKTHTCPPCPAPELLGGPSVFLFPPKPKDTLMISRTPEVTCVVVDVSHEDPEVKFNWYVDGVEVHNAKTKPREEQYNSTYRVVSVLTVLHQDWLNGKEYKCKVSNKALPAPIEKTISKAKGQPREPQVCTLPPSRDELTKNQVSLWCLVKGFYPSDIAVEWESNGQPENNYKTTPPVLDSDGSFFLYSKLTVDKSRWQQGNVFSCSVMHEALHNRYTQKSLSLSP
light: DIVMTQSPLSLPVTPGEPASISCRSSQSLVHSNRNTYLHWYQQKPGQAPRLLIYKVSNRFSGVPDRFSGSGSGTDFTLKISRVEAEDVGVYYCGQGTQVPYTFGQGTKLEIKRTVAAPSVFIFPPSDEQLKSGTASVVCLLNNFYPREAKVQWKVDNALQSGNSQESVTEQDSKDSTYSLSSTLTLSKADYEKHKVYACEVTHQGLSSPVTKSFNRGEC
ratio of amounts bound Z=Y/X (altered form / CE115HA000): 0.35

B5: CE115HA000 H35L one-arm antibody (antibody, human IgG1, kappa, L234A L235A, N297A, name in Kabat numbering)
heavy: QVQLVESGGGVVQPGRSLRLSCAASGFTFSNAWMLWVRQAPGKGLEWVAQIKAKSNNYATYYAESVKGRFTISRDDSKNSLYLQMNSLKTEDTAVYYCRYVHYGAYYGVDAWGQGTTVTVSSASTKGPSVFPLAPSSKSTSGGTAALGCLVKDYFPEPVTVSWNSGALTSGVHTFPAVLQSSGLYSLSSVVTVPSSSLGTQTYICNVNHKPSNTKVDKKVEPKSCDKTHTCPPCPAPEAAGGPSVFLFPPKPKDTLMISRTPEVTCVVVDVSHEDPEVKFNWYVDGVEVHNAKTKPREEQYASTYRVVSVLTVLHQDWLNGKEYKCKVSNKALPAPIEKTISKAKGQPREPQVYTLPPSRCELTKNQVSLSCAVKGFYPSDIAVEWESNGQPENNYKTTPPVLDSDGSFFLVSKLTVDKSRWQQGNVFSCSVMHEALHNHYTQKSLSLSPDYKDDDDK
chain: EPKSSDKTHTCPPCPAPELLGGPSVFLFPPKPKDTLMISRTPEVTCVVVDVSHEDPEVKFNWYVDGVEVHNAKTKPREEQYNSTYRVVSVLTVLHQDWLNGKEYKCKVSNKALPAPIEKTISKAKGQPREPQVCTLPPSRDELTKNQVSLWCLVKGFYPSDIAVEWESNGQPENNYKTTPPVLDSDGSFFLYSKLTVDKSRWQQGNVFSCSVMHEALHNRYTQKSLSLSP
light: DIVMTQSPLSLPVTPGEPASISCRSSQSLVHSNRNTYLHWYQQKPGQAPRLLIYKVSNRFSGVPDRFSGSGSGTDFTLKISRVEAEDVGVYYCGQGTQVPYTFGQGTKLEIKRTVAAPSVFIFPPSDEQLKSGTASVVCLLNNFYPREAKVQWKVDNALQSGNSQESVTEQDSKDSTYSLSSTLTLSKADYEKHKVYACEVTHQGLSSPVTKSFNRGEC
ratio of amounts bound Z=Y/X (altered form / CE115HA000): 0.11

B6: CE115HA000 H35M one-arm antibody (antibody, human IgG1, kappa, L234A L235A, N297A, name in Kabat numbering)
heavy: QVQLVESGGGVVQPGRSLRLSCAASGFTFSNAWMMWVRQAPGKGLEWVAQIKAKSNNYATYYAESVKGRFTISRDDSKNSLYLQMNSLKTEDTAVYYCRYVHYGAYYGVDAWGQGTTVTVSSASTKGPSVFPLAPSSKSTSGGTAALGCLVKDYFPEPVTVSWNSGALTSGVHTFPAVLQSSGLYSLSSVVTVPSSSLGTQTYICNVNHKPSNTKVDKKVEPKSCDKTHTCPPCPAPEAAGGPSVFLFPPKPKDTLMISRTPEVTCVVVDVSHEDPEVKFNWYVDGVEVHNAKTKPREEQYASTYRVVSVLTVLHQDWLNGKEYKCKVSNKALPAPIEKTISKAKGQPREPQVYTLPPSRCELTKNQVSLSCAVKGFYPSDIAVEWESNGQPENNYKTTPPVLDSDGSFFLVSKLTVDKSRWQQGNVFSCSVMHEALHNHYTQKSLSLSPDYKDDDDK
chain: EPKSSDKTHTCPPCPAPELLGGPSVFLFPPKPKDTLMISRTPEVTCVVVDVSHEDPEVKFNWYVDGVEVHNAKTKPREEQYNSTYRVVSVLTVLHQDWLNGKEYKCKVSNKALPAPIEKTISKAKGQPREPQVCTLPPSRDELTKNQVSLWCLVKGFYPSDIAVEWESNGQPENNYKTTPPVLDSDGSFFLYSKLTVDKSRWQQGNVFSCSVMHEALHNRYTQKSLSLSP
light: DIVMTQSPLSLPVTPGEPASISCRSSQSLVHSNRNTYLHWYQQKPGQAPRLLIYKVSNRFSGVPDRFSGSGSGTDFTLKISRVEAEDVGVYYCGQGTQVPYTFGQGTKLEIKRTVAAPSVFIFPPSDEQLKSGTASVVCLLNNFYPREAKVQWKVDNALQSGNSQESVTEQDSKDSTYSLSSTLTLSKADYEKHKVYACEVTHQGLSSPVTKSFNRGEC
ratio of amounts bound Z=Y/X (altered form / CE115HA000): 0.29
